The MegaScale stability set (Tsuboyama et al. 2023)

B1: 2K2A (parent)
chain: ELREAFRLYDKEGNGYISTDVMREILAELDETLSSEDLDAMIDEIDADGSGTVDFEEFMGVMT

Variants of: B1
Experiment: folding stability dG (cDNA display proteolysis); higher = more stable
Settings: PBS, room temperature

Variant	folding stability dG [kcal/mol]
ELREAFRLYDKEGNGYISTDVMREILAELDETLSSEDLDAMIDEIDADGSGTVDFEEFMIVMT [G60I]	2.39
ELREAFRLYDKEGNGYISTDVMREILAELDETLSSEDLDAMIDEIDADGSGTVDFEEFMRVMT [G60R]	2.82
ELREAFRLYDKEGNGYISTDVMREILAELDETLSSEDLDAMIDEIDADGSGTVDFEEFMVVMT [G60V]	2.13
ELREAFRLYDKEGNGYISTDVMREILAELDETLSSEDLDAMIDEIDADGSGTVDFEEFMMVMT [G60M]	2.5
ELREAFRLYDKEGNGYISTDVMREILAELDETLSSEDLDAMIDEIDADGSGTVDFEEFMAVMT [G60A]	2.53
ELREAFRLYDKEGNGYISTDVMREILAELDETLSSEDLDAMIDEIDADGSGTVDFEEFMWVMT [G60W]	2.79
ELREAFRLYDKEGNGYISTDVMREILAELDETLSSEDLDAMIDEIDADGSGTVDFEEFMYVMT [G60Y]	2.57
ELREAFRLYDKEGNGYISTDVMREILAELDETLSSEDLDAMIDEIDADGSGTVDFEEFMDVMT [G60D]	1.75
ELREAFRLYDKEGNGYISTDVMREILAELDETLSSEDLDAMIDEIDADGSGTVDFEEFMEVMT [G60E]	1.85
ELREAFRLYDKEGNGYISTDVMREILAELDETLSSEDLDAMIDEIDADGSGTVDFEEFMTVMT [G60T]	2.37
ELREAFRLYDKEGNGYISTDVMREILAELDETLSSEDLDAMIDEIDADGSGTVDFEEFMQVMT [G60Q]	2.32
ELREAFRLYDKEGNGYISTDVMREILAELDETLSSEDLDAMIDEIDADGSGTVDFEEFMFVMT [G60F]	2.49
ELREAFRLYDKEGNGYISTDVMREILAELDETLSSEDLDAMIDEIDADGSGTVDFEEFMKVMT [G60K]	2.69
ELREAFRLYDKEGNGYISTDVMREILAELDETLSSEDLDAMIDEIDADGSGTVDFEEFMSVMT [G60S]	2.29
ELREAFRLYDKEGNGYISTDVMREILAELDETLSSEDLDAMIDEIDADGSGTVDFEEFMCVMT [G60C]	2.25
ELREAFRLYDKEGNGYISTDVMREILAELDETLSSEDLDAMIDEIDADGSGTVDFEEFMPVMT [G60P]	0.712
ELREAFRLYDKEGNGYISTDVMREILAELDETLSSEDLDAMIDEIDADGSGTVDFEEFMNVMT [G60N]	2.15
ELREAFRLYDKEGNGYISTDVMREILAELDETLSSEDLDAMIDEIDADGSGTVDFEEFMLVMT [G60L]	2.46
ELREAFRLYDKEGNGYISTDVMREILAELDETLSSEDLDAMIDEIDADGSGTVDFEEFMHVMT [G60H]	2.48
ELREAFRLYDKEGNGYISTDVMREILAELDETLSSEDLDAMIDEIDADGSGTVDFSEFMGVMT [E56S]	1.75
ELREAFRLYDKEGNGYISTDVMREILAELDETLSSEDLDAMIDEIDADGSGTVDFKEFMGVMT [E56K]	1.77
ELREAFRLYDKEGNGYISTDVMREILAELDETLSSEDLDAMIDEIDADGSGTVDFVEFMGVMT [E56V]	1.75

Variant	folding stability dG [kcal/mol]
ELREAFRLYDKEGNGYISTDVMREILAELDETLSSEDLDAMIDEIDADGSGTVDFHEFMGVMT [E56H]	1.88
ELREAFRLYDKEGNGYISTDVMREILAELDETLSSEDLDAMIDEIDADGSGTVDFREFMGVMT [E56R]	1.78
ELREAFRLYDKEGNGYISTDVMREILAELDETLSSEDLDAMIDEIDADGSGTVDFLEFMGVMT [E56L]	1.88
ELREAFRLYDKEGNGYISTDVMREILAELDETLSSEDLDAMIDEIDADGSGTVDFNEFMGVMT [E56N]	1.86
ELREAFRLYDKEGNGYISTDVMREILAELDETLSSEDLDAMIDEIDADGSGTVDFTEFMGVMT [E56T]	1.69
ELREAFRLYDKEGNGYISTDVMREILAELDETLSSEDLDAMIDEIDADGSGTVDFQEFMGVMT [E56Q]	1.9
ELREAFRLYDKEGNGYISTDVMREILAELDETLSSEDLDAMIDEIDADGSGTVDFPEFMGVMT [E56P]	1.21
ELREAFRLYDKEGNGYISTDVMREILAELDETLSSEDLDAMIDEIDADGSGTVDFMEFMGVMT [E56M]	1.64
ELREAFRLYDKEGNGYISTDVMREILAELDETLSSEDLDAMIDEIDADGSGTVDFIEFMGVMT [E56I]	1.87
ELREAFRLYDKEGNGYISTDVMREILAELDETLSSEDLDAMIDEIDADGSGTVDFYEFMGVMT [E56Y]	2.02
ELREAFRLYDKEGNGYISTDVMREILAELDETLSSEDLDAMIDEIDADGSGTVDFWEFMGVMT [E56W]	1.99
ELREAFRLYDKEGNGYISTDVMREILAELDETLSSEDLDAMIDEIDADGSGTVDFEEFTGVMT [M59T]	1.49
ELREAFRLYDKEGNGYISTDVMREILAELDETLSSEDLDAMIDEIDADGSGTVDFEEFLGVMT [M59L]	1.91
ELREAFRLYDKEGNGYISTDVMREILAELDETLSSEDLDAMIDEIDADGSGTVDFEEFAGVMT [M59A]	2.04
ELREAFRLYDKEGNGYISTDVMREILAELDETLSSEDLDAMIDEIDADGSGTVDFEEFYGVMT [M59Y]	2.02
ELREAFRLYDKEGNGYISTDVMREILAELDETLSSEDLDAMIDEIDADGSGTVDFEEFSGVMT [M59S]	1.77
ELREAFRLYDKEGNGYISTDVMREILAELDETLSSEDLDAMIDEIDADGSGTVDFEEFIGVMT [M59I]	2.03
ELREAFRLYDKEGNGYISTDVMREILAELDETLSSEDLDAMIDEIDADGSGTVDFEEFKGVMT [M59K]	1.81
ELREAFRLYDKEGNGYISTDVMREILAELDETLSSEDLDAMIDEIDADGSGTVDFEEFCGVMT [M59C]	1.7
ELREAFRLYDKEGNGYISTDVMREILAELDETLSSEDLDAMIDEIDADGSGTVDFEEFPGVMT [M59P]	-0.961
ELREAFRLYDKEGNGYISTDVMREILAELDETLSSEDLDAMIDEIDADGSGTVDFEEFRGVMT [M59R]	1.96
ELREAFRLYDKEGNGYISTDVMREILAELDETLSSEDLDAMIDEIDADGSGTVDFEEFFGVMT [M59F]	2.03

Variant	folding stability dG [kcal/mol]
ELREAFRLYDKEGNGYISTDVMREILAELDETLSSEDLDAMIDEIDADGSGTVDFEEFEGVMT [M59E]	1.41
ELREAFRLYDKEGNGYISTDVMREILAELDETLSSEDLDAMIDEIDADGSGTVDFEEFHGVMT [M59H]	1.2
ELREAFRLYDKEGNGYISTDVMREILAELDETLSSEDLDAMIDEIDADGSGTVDFEEFQGVMT [M59Q]	1.65
ELREAFRLYDKEGNGYISTDVMREILAELDETLSSEDLDAMIDEIDADGSGTVDFEEFWGVMT [M59W]	1.4
ELREAFRLYDKEGNGYISTDVMREILAELDETLSSEDLDAMIDEIDADGSGTVDFEEFGGVMT [M59G]	0.537
ELREAFRLYDKEGNGYISTDVMREILAELDETLSSEDLDAMIDEIDADGSGTVDFEEFVGVMT [M59V]	2.18
ELREAFRLYDKEGNGYISTDVMREILAELDETLSSEDLDAMIDEIDADGSGTVDFEEFDGVMT [M59D]	0.144
ELREAFRLYDKEGNGYISTDVMREILAELDETLSSEDLDAMIDEIDADGSGTVDFEEFNGVMT [M59N]	0.889
ELREAFRLYDKEGNGYISTDVMREILAELDETLSSEDLDAMIDEIDADGSGTVDFEENMGVMT [F58N]	-0.854
ELREAFRLYDKEGNGYISTDVMREILAELDETLSSEDLDAMIDEIDADGSGTVDFEEWMGVMT [F58W]	1.69
ELREAFRLYDKEGNGYISTDVMREILAELDETLSSEDLDAMIDEIDADGSGTVDFEEIMGVMT [F58I]	0.406
ELREAFRLYDKEGNGYISTDVMREILAELDETLSSEDLDAMIDEIDADGSGTVDFEETMGVMT [F58T]	-0.411
ELREAFRLYDKEGNGYISTDVMREILAELDETLSSEDLDAMIDEIDADGSGTVDFEEQMGVMT [F58Q]	-0.946
ELREAFRLYDKEGNGYISTDVMREILAELDETLSSEDLDAMIDEIDADGSGTVDFEEVMGVMT [F58V]	0.336
ELREAFRLYDKEGNGYISTDVMREILAELDETLSSEDLDAMIDEIDADGSGTVDFEELMGVMT [F58L]	0.779
ELREAFRLYDKEGNGYISTDVMREILAELDETLSSEDLDAMIDEIDADGSGTVDFEEEMGVMT [F58E]	-0.986
ELREAFRLYDKEGNGYISTDVMREILAELDETLSSEDLDAMIDEIDADGSGTVDFEEYMGVMT [F58Y]	1.6
ELREAFRLYDKEGNGYISTDVMREILAELDETLSSEDLDAMIDEIDADGSGTVDFEEMMGVMT [F58M]	0.426
ELREAFRLYDKEGNGYISTDVMREILAELDETLSSEDLDAMIDEIDADGSGTVDFEEAMGVMT [F58A]	0.332
ELREAFRLYDKEGNGYISTDVMREILAELDETLSSEDLDAMIDEIDADGSGTVDFEECMGVMT [F58C]	0.529
ELREAFRLYDKEGNGYISTDVMREILAELDETLSSEDLDAMIDEIDADGSGTVDFEMFMGVMT [E57M]	2.37
ELREAFRLYDKEGNGYISTDVMREILAELDETLSSEDLDAMIDEIDADGSGTVDFEPFMGVMT [E57P]	0.106

Variant	folding stability dG [kcal/mol]
ELREAFRLYDKEGNGYISTDVMREILAELDETLSSEDLDAMIDEIDADGSGTVDFEYFMGVMT [E57Y]	1.58
ELREAFRLYDKEGNGYISTDVMREILAELDETLSSEDLDAMIDEIDADGSGTVDFEWFMGVMT [E57W]	1.55
ELREAFRLYDKEGNGYISTDVMREILAELDETLSSEDLDAMIDEIDADGSGTVDFESFMGVMT [E57S]	2.39
ELREAFRLYDKEGNGYISTDVMREILAELDETLSSEDLDAMIDEIDADGSGTVDFEHFMGVMT [E57H]	2.18
ELREAFRLYDKEGNGYISTDVMREILAELDETLSSEDLDAMIDEIDADGSGTVDFEGFMGVMT [E57G]	2.33
ELREAFRLYDKEGNGYISTDVMREILAELDETLSSEDLDAMIDEIDADGSGTVDFEIFMGVMT [E57I]	1.97
ELREAFRLYDKEGNGYISTDVMREILAELDETLSSEDLDAMIDEIDADGSGTVDFERFMGVMT [E57R]	2.48
ELREAFRLYDKEGNGYISTDVMREILAELDETLSSEDLDAMIDEIDADGSGTVDFECFMGVMT [E57C]	2.01
ELREAFRLYDKEGNGYISTDVMREILAELDETLSSEDLDAMIDEIDADGSGTVDFELFMGVMT [E57L]	1.9
ELREAFRLYDKEGNGYISTDVMREILAELDETLSSEDLDAMIDEIDADGSGTVDFEAFMGVMT [E57A]	2.47
ELREAFRLYDKEGNGYISTDVMREILAELDETLSSEDLDAMIDEIDADGSGTVDFENFMGVMT [E57N]	2
ELREAFRLYDKEGNGYISTDVMREILAELDETLSSEDLDAMIDEIDADGSGTVDFEDFMGVMT [E57D]	1.72
ELREAFRLYDKEGNGYISTDVMREILAELDETLSSEDLDAMIDEIDADGSGTVDFEVFMGVMT [E57V]	2.26
ELREAFRLYDKEGNGYISTDVMREILAELDETLSSEDLDAMIDEIDADGSGTVDFEKFMGVMT [E57K]	2.58
ELREAFRLYDKEGNGYISTDVMREILAELDETLSSEDLDAMIDEIDADGSGTVDFEQFMGVMT [E57Q]	2.48
ELREAFRLYDKEGNGYISTDVMREILAELDETLSSEDLDAMIDEIDADGSGTVDFEFFMGVMT [E57F]	1.47
ELREAFRLYDKEGNGYISTDVMREILAELDETLSSEDLDAMIDEIDADGSGTVDFETFMGVMT [E57T]	2.46
ELREAFRLYDKEGNGYISTDVMREILAELDETLSSEDLDAMIDEIDADGSGTVDFEEFMGAMT [V61A]	2.2
ELREAFRLYDKEGNGYISTDVMREILAELDETLSSEDLDAMIDEIDADGSGTVDFEEFMGCMT [V61C]	1.86
